Experimental data from patent US20220160699, “MODULATORS OF TDP-43” (Alteron Therapeutics, Inc., published 2022).

Target: TDP-43 (TARDBP) (UniProt Q13148 Q13148:1-414)
Test: pulldown; streptavidin bead pulldown and anti-TDP-43 Western; 20 mM HEPES pH 7.5, 0.3% CHAPS, 150 mM NaCl, on ice/4 C; binding blocked by 30 uM ALT-59, and complex displaced by ALT-59
Conditions: tags: N-terminal His-Sumo, expressed in E. coli Rosetta (DE3) from pSumo/TDP43; label: 3' biotin
Protocol: Additional experiments were performed to confirm the direct binding of ALT-59 to TDP-43. One microgram of purified His-Sumo-TDP43 was incubated with 1 μg TG₁₂-biotin ([…]-biotin (SEQ ID NO: 1)) in binding buffer containing 20 mM HEPES, pH 7.5, 0.3% CHAPS, 150 mM NaCl, (Sigma-Aldrich), and protease inhibitor cocktail (Roche) for 4 hours on ice in the presence of carrier (50% Cremophor EL, 50% absolute ethanol) or 30 μM ALT-59 dissolved in carrier. Streptavidin magnetic beads (20 μl settled beads, GE Healthcare Life Sciences) were added to pull down the DNA-protein complex by rotating at 4° C. for 2 hours. After being washed 5 times with binding buffer, samples were boiled in protein sample buffer. In another experiment, DNA-protein complex bound to Streptavidin magnetic beads were washed and split into three parts, two of which were incubated with either carrier or ALT-59 for 4 hours with rotation at 4° C. to elute TDP-43 from TG₁₂-biotin-streptavidin. The third part and elutes were mixed with protein sample buffer and boiled. Protein samples from the above experiments were loaded onto 4-20% Tris-glycine gel (Invitrogen) for fractionation. Western blotting was performed using anti-TDP-43 antibody (Proteintech Group).

Chain of TDP-43 (TARDBP) (Q13148 whole entry, one chain of several): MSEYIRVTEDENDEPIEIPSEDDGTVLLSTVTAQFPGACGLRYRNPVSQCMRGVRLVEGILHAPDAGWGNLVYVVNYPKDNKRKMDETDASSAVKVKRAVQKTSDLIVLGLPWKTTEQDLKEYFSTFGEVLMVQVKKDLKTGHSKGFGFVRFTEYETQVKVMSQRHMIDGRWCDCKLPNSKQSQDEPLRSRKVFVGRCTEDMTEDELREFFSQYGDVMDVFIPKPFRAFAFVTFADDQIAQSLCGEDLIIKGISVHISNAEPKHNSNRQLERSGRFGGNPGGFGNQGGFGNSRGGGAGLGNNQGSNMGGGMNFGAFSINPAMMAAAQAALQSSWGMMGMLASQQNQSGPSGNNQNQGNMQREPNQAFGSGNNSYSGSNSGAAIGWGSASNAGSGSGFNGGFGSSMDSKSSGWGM

TGTGTGTGTGTGTGTGTGTGTGTG (ssDNA) [TG12-biotin]
binding result: binds
